Target: oxidised human Prdx6 (Peroxiredoxin 6), peroxidatic cysteine in the sulfenic acid form (human) (UniProt P30041)
Experiment: SEC; Sephadex G-75, 20 mM Tris-HCl pH 7.0, 500 ul of 2 mg/ml protein, void volume by Blue dextran

Substance: oxidised human Prdx6 (Peroxiredoxin 6), peroxidatic cysteine in the sulfenic acid form (from UniProt P30041 1-224) (enzyme)
- stoichiometry N: 2

Reference: publication PMC7566464
